Laboratory results as given in the DeepSol protein solubility set.

Assay: soluble on expression in E. coli; label from the status in PepcDB or PDB records

| Sequence | soluble on expression in E. coli |
| --- | --- |
| MRSQRELTSPMTPLENPGDISDKPRLTTQKLSLGYGQQLIINKLSLSIKNGAFSVIIGPNGCGKSTLLRALSRSLLPQNGSIRLDQQDIQHYKAKVFARQLSLLSQGASISETLTVFDLVSRGRYAHQSFFHQWSTEDERIVKAAISAVNLESLVQQRVSELSGGQRQRAWFAMTLAQHTPIVLLDEPTTYLDIAHQIEMLDLCQELQQQGKTLVLVLHDINQALRYATHLIMLKEGQIYAEGLPESIVTEDSIAAVFGLRCRIITDPESGKPLVIPRRQSR | not soluble |
| MRSSQAIDFERIPEMEDKWRKEITAMTVTLQDKRKAIQNDEILRGVHPKSHGCLDAEFTVNRDIAPQFQVGLFAQPGKCFRARIRYSNADVLKRADLEKGQDATGARFLNHGSRGMAIKVLDVGAPVLLEDGCARNQDFLMVNTPEFAFRNVRDYLRLTKALCASADGADPLLFFLPGELLKRGMMDMSGSLLPAPAGEPPQNAGLRALFEANRAFFDDFDAEDMQGVISAAGVVGKIQSTPVRNPLFAPYFSAASFRFGKDRVMRFSVVPLQSEEMAADMASDAFEDFSDDYLSQALALSVATNEPIKLSFRIQIAHEEDIVNDIDGMIENAAKTWDEDQFSHTEVAQITINPPCPSAELVDTCKPLLFTPWHAVVDFEPLGGINRLRKPVYSTSAAFRRSVLEHHHHHH | not soluble |
| MRSVLQSEVSECGLASLAMVANAHGKHLTLSQLRQRFPSSLKGAKLTHLVHIAQQLGFSTRPLRLDMEDLGKLKLPCILHWDLNHFVVLAKVGTTKVTIYDPAIGKRKLSLNEVSKYFTGIALELTTTTE | not soluble |
| MRTVSHPTPLRRAPVQRRSAERLTRILDACADLLDEVGYDALSTRAVALRADVPIGSVYRFFGNKRQMADALAQRNLERYAERVTERLTEAGDGGWRGALDTVLDEYLAMKRTAPGFSLIDFGNQIPVGDRHAVPNHRVAERLTELLSGYLGRRPDDDLRRVFLVAVETADTLVQLAFRVAPDGDEKIIEEARELLRAYLGRVLD | soluble |
| MRVALTIAGSDSGGGAGVQADLKVFFRFGVYGTSALTLVTAQNTLGVQRVHLLPPEVVYAQIESVAQDFPLHAAKTGALGDAAIVEAVAEAVRRFGVRPLVVDPVMVAKSGDPLLAKEAAAALKERLFPLADLVTPNRLEAEALLGRPIRTLKEAEEAAKALLALGPKAVLLKGGHLEGEEAVDLLATRGGVLRFSAPRVHTRNTHGTGCTLSAAIAALLAKGRPLAEAVAEAKAYLTRALKTAPSLGHGHGPLDHWA | soluble |
| MRVFVVGGTGFVGQEVVRLLLARGHTPLVLARRSRPLPEGAVLVEGDIAREVPDLEGVEAAIYLAGIIRERGQTFRAVHVEGVRNLLRAMERAGVGRLLHMSALGARPEAPSRYHRTKAEGEALVRQSGLSHAIFRPSLIFGPGDEFFGRVLRGLVCAPLPFVPLIGDGGFPFRPVYVGDVAEAFVGALERGLEGTYDLVGPKEYSFRELLQLVMEVLGRRKPFLSLPLWLMDRLVPLLSPLPISPLTLDQYLMLKEGNTAPFPEALKELLPAPQALEEVLPRYLRC | soluble |
| MRVYVFTPDGDVLDLPHGVTPLDFAYHVHSNLGHRCRGAKVNGHIVPLTYQLKTGDRVEVLTGKEIKPSRLEHHHHHH | not soluble |
| MRYFIVAGEASGDLHASNLVRALKEHDPEAVFAFMGGDFLSEATGERPIFHYREVAFMGFIPVLTHLGVIRRAGEHVQEQMRAFNPDVVIAVDYPGFNMRYVLPFVREELGKPIVYYISPKVWAWKSWRIKTLKKYVDLMLCILPFEKDFFAGHDFPVIYVGNPCYDAVKQHMRPTIEEQERSAKDSRQVALLCGSRLLEVKENLPVMLRVMKQFPDYRPVIAGAPGLTIQDYTPFLPDDSIPVVFGRTYEILRESKAALVTSGTATLETALIGTPQVVCYYIRGGRLTNLIFKYCFGTPFISLTNLIAGRAVVPELFGALFTEKRLAASLSPLLDASSAERQAQLSGYDSIRKSIGTDNTSDKAARHIIARFAKDNARPSSL | not soluble |
| MRYTILTKGDSKSNALKHKMINHMKDFQMVEDSENPEIVISVGGDGTLLQAFHQYSHMLSKVAFVGIHTGHLGFYADWLPHEVEKLIIEINNSEFQVIEYPLLELIVRYNDNGYETRYLALNEATMKTENGSTLVVDVNIRGKHFERFRGDGLCISTPSGSTAYNKALGGALIHPSLEAMQIAEIASINNRVFRTVGSPLVLPKHHTCLITPVNHDTIRTTIDHVSIKHKNVNAIQYRVANEKVRFARFRPFPFWKRVHDSFISSDDERMAGDPLEHHHHHH | soluble |
| MSAEVETSEGVDESEKKNSGALEKENQMRMADLSELLKEGTKEAHDRAENTQFVKDFLKGNIKKELFKLATTALYFTYSALEEEMERNKDHPAFAPLYFPMELHRKEALTKDMEYFFGENWEEQVQCPKAAQKYVERIHYIGQNEPELLVAHAYTRYMGDLSGGQVLKKVAQRALKLPSTGEGTQFYLFENVDNAQQFKQLYRARMNALDLNMKTKERIVEEANKAFEYNMQIFNELDQAGSTLARETLEDGFPVHDGKGDMRKCPFYAAEQDKGALEGSSCPFRTAM | soluble |
| MSAFQGNMFVLVNVDQHRDLIGPIINQLVADYGTPVSIVDNIQKICPKCSCTPHANPDSSSVPTTTSSDEHQEEPPTPKTIAPAPIATPVLKPLLPQRESIVSNGIHPVVVKRKQSIAEEIDTPEIKKSRVVEPVKVKTETIILDDDDGNVLDTVLAALQNGNHEMQFTGSGGSSDDGASNSSNIYDVDDEDYGTSQWNPDFLTNFITSQPNIFSVTGQNIKSSPSKNAGQTPNGKRQVPPMLTVNGKTRRGRIVYSTQELNILEKYYEEDPNACADPRKRETMCKTLSIDYHRLKVWFQNRRRKDKVRSQEEAATTFNGLDYSEDS | not soluble |
| MSAIIDPSTGKPFKADKQIMGEDIARAYTTGIRNPRPTSVASTITPQRLAGVLRSVIDGNDPEAYMTLAEEIEERDLHYAAQLRTRKFAVAAITPTVEAASDDAIDVLMAERAREIINDDQIPELFFDLLDGLGKGLAVVQILWDTKSTPWKPQDYKWVDPRYLRQDQQTLEQILLISEDAPMGAELEPYKFIIHTPRSKSGSVWRNGLARLVAVMYMLKSFTVRDWWAFAEVFGVPVRVGKYGANASESDISTLINAIGRIASDAGAVIPESMKLELIETAKGNGGDTLFENMARWCDEQISKAVLGQTMTADNGSSQSQATVHNEVRIDIAKWDARQLEASINEYLIKPYIILNWGEQLRYPKVRIKVPEPEDLQLLVNSLTPLIDRGLKVSASEMADKLGLGTVDADEDILLPFQTVGIQAMPTALNRANSQTIAINQVRNTAEREIDNLANEAMGEWEQVAEEFMNPIIDLANKSASYDEFAAGLPALQQQLGAEQFIAQMAQYMFQLRGLGDAQDG | soluble |
| MSAIKVFILSDSIGETAHNVALAAAAQFSDYDIRYQRFPFVRTDSLLQTVLSQALKEHAAIFHTFVDRRLSQIVNQFCEAHELPYYDVITPALDTFSQITHVQPSNHPGTVHALNTNYFDRINAIEFAVTYDDGKNPSGFLEADVVLLGVSRTSKTPLSLYLANRNLKVANLPLVPQAQIPDEIWKVDPKKIFGLTNDPEKLNDIRRQRMVQYGLNPDTMYSNTDKIKAELEYADKIFKKIGCLVINVANKSIEETATLITESLNTDDTNNGLEHHHHHH | soluble |
| MSAKHPVIAVTGSSGAGTTTTSLAFRKIFAQLNLHAAEVEGDSFHRYTRPEMDMAIRKARDAGRHISYFGPEANDFSLLEHTFIEYGQTGKGQSRKYLHTYDEAVPWNQVPGTFTPWQPLPEPTDVLFYEGLHGGVVTPQHDVARHVDLLVGVVPIVNLEWIQKLIRDTSERGHSREAVMDSVVRSMDDYINYITPQFSRTHINFQRVPTVDTSNPFAAKGIPSLDESFVVIHFRNLEGIDFPWLLAMLQGSFISHINTLVVPGGKMGLAMELIMLPLVQRLMEGKKIE | not soluble |
| MSANNTAKNMHPETRAVGSETSSLQASQDEFENLVRNVDVKSRIMDQYADWKGVRYRLGGSTKKGIDCSGFVQRTFREQFGLELPRSTYEQQEMGKSVSRSNLRTGDLVLFRAGSTGRHVGIYIGNNQFVHASTSSGVIISSMNEPYWKKRYNEARRVLSRSLEHHHHHH | soluble |
| MSAPPTAPADPSTGSDRPKRSVPPPRHPTHAVDRAFLDLERRRPEVRWDAGGVAYLSGPPPSLADLRAYVAFRLGELPLLTSRVTGGRRPGWQPSEDFPVDRHVYEVVADGPADWDTALHSALNAPFAPGAYWGVWLIHGHEPDAYALCYRFLHACQDGSAAAMTFRAMLGDGEPSARPLPGGSGVFGVPRRFGAAVALATRFLARTFTVRRHRPDPAFAPAGERRLWRGRVPVDTLRLIGAGRGGSAHDAHLAALAGALSVWAARSGVPLPRVTAVLPVDARRADEEQTWGNRCFALPVDLPVGPAPGRPDGSPDEEAPLRRLDQIMAVTRKLRGDTWRQAVQDLVRYMPDRPTAWYLRRMLSPRVTNVMATSMPLAEKGSLGETRVTGTALLPLLVPGHLCGVGLSFFGDWAEVSFVADRALPLGELLPELWEQAVRELAESVQRGLEHHHHHH | not soluble |
| MSASVSLTTPVSVSCLINDVNPSVKAKKEDATAVTTTQAPKIAEAIHRSTPTLADNVLYDSTSYTHGVTTGSTNVPISSGQRPQQADYSLALLAKDVYAPTSGNLNGFVRLSDERLLAAGIDPTALSDSASGFLAGIYSDNQQYVLSFAGTNDRHDWLSNIRQAVGYEDVQYNEAVALGKTAKMAFGDALVITGHSLGGGLAATAALATGTFAVTFNAAGVAKNTLKRLGMDSAKARRSAENGGIRSYSEKYDLLTGIQELTSLIPNAVGHKIVLANSDKLTGVDDWLPHKHLERRISAHSIEKVLSSMSEQQPWERRYV | not soluble |
| MSATASVATRHDWSLAEVRALFEQPFNDLLFQAQTVHRAHFDPNRVQVSTLLSIKTGACPEDCKYCPQSGHYNTGLDKEKLMEVQKVLEAAAEAKAIGSTRFCMGAAWKHPSAKDMPYVLEMVKGVKKLGLETCMTLGRLTQEQTQALADAGLDYYNHNLDTSPEFYGNIITTRTYSERLQTLAYVREAGMKICSGGILGMGESVDDRAGLLIQLANLPEHPESVPINMLVKVKGTPLAEEKDVDPFDFIRTLAVARIMMPKSHVRLSAGREQMNEQMQALAFMAGANSIFYGEKLLTTKNPQAEKDMQLFARLGIKPEEREEHADEVHQAAIEQALVEQRESKLFYNAASA | not soluble |
| MSATSVDTQRTKGQDNKVQNGSLHQKDTVHDNDFEPYLTGQSNQSNSYPSMSDPYLSSYYPPSIGFPYSLNEAPWSTAGDPPIPYLTTYGQLSNGDHHFMHDAVFGQPGGLGNNIYQHRFNFFPENPAFSAWGTSGSQGQQTQSSAYGSSYTYPPSSLGGTVVDGQPGFHSDTLSKAPGMNSLEQGMVGLKIGDVSSSAVKTVGSVVSSVALTGVLSGNGGTNVNMPVSKPTSWAAIASKPAKPQPKMKTKSGPVMGGGLPPPPIKHNMDIGTWDNKGPVPKAPVPQQAPSPQAAPQPQQVAQPLPAQPPALAQPQYQSPQQPPQTRWVAPRNRNAAFGQSGGAGSDSNSPGNVQPNSAPSVESHPVLEKLKAAHSYNPKEFEWNLKSGRVFIIKSYSEDDIHRSIKYSIWCSTEHGNKRLDSAFRCMSSKGPVYLLFSVNGSGHFCGVAEMKSPVDYGTSAGVWSQDKWKGKFDVQWIFVKDVPNNQLRHIRLENNDNKPVTNSRDTQEVPLEKAKQVLKIISSYKHTTSIFDDFAHYEKRQEEEEVVRKERQSRNKQ | soluble |
| MSAYLDWLADMGIDGAHPGGFELTKQILRKLKIDRSTSVLDVGCGTGQTAAYIAEQYGANVTAIDIHPTMIAKAKQRFAAKAVSVRLHRASVEALPFPAGTFDLALSESVLAFVSLPNALAEIRRVLKNDGLFVGIEACHERLTAAEQKQIAAFYGFRQLMTSAEWKEVLEQSGFGCRQFSYAAAAEAPSLGAPIVIALPPTPEMASMWQMHQQLTAQFGDRLGYCVFCCEP | not soluble |
